The source of these data is patent US20250320302A1.

This assay deals with Spike protein of SARS-CoV-2 (isolate USA-WA1/2020) (SARS-CoV-2) (UniProt P0DTC2). Description: cell-based or functional assay.

Substance S309 (antibody) had a neutralization EC50 (viability of Vero E6 cells by CellTiter-Glo, 72 h after infection) of 0.858 µg/mL.
